According to IntAct's records for PubMed 15319482:

B1: Protein BRASSINOSTEROID … 1 (Arabidopsis thaliana (Mouse-ear cress)), O22476 (parent)
chain: MKTFSSFFLSVTTLFFFSFFSLSFQASPSQSLYREIHQLISFKDVLPDKNLLPDWSSNKNPCTFDGVTCRDDKVTSIDLSSKPLNVGFSAVSSSLLSLTGLESLFLSNSHINGSVSGFKCSASLTSLDLSRNSLSGPVTTLTSLGSCSGLKFLNVSSNTLDFPGKVSGGLKLNSLEVLDLSANSISGANVVGWVLSDGCGELKHLAISGNKISGDVDVSRCVNLEFLDVSSNNFSTGIPFLGDCSALQHLDISGNKLSGDFSRAISTCTELKLLNISSNQFVGPIPPLPLKSLQYLSLAENKFTGEIPDFLSGACDTLTGLDLSGNHFYGAVPPFFGSCSLLESLALSSNNFSGELPMDTLLKMRGLKVLDLSFNEFSGELPESLTNLSASLLTLDLSSNNFSGPILPNLCQNPKNTLQELYLQNNGFTGKIPPTLSNCSELVSLHLSFNYLSGTIPSSLGSLSKLRDLKLWLNMLEGEIPQELMYVKTLETLILDFNDLTGEIPSGLSNCTNLNWISLSNNRLTGEIPKWIGRLENLAILKLSNNSFSGNIPAELGDCRSLIWLDLNTNLFNGTIPAAMFKQSGKIAANFIAGKRYVYIKNDGMKKECHGAGNLLEFQGIRSEQLNRLSTRNPCNITSRVYGGHTSPTFDNNGSMMFLDMSYNMLSGYIPKEIGSMPYLFILNLGHNDISGSIPDEVGDLRGLNILDLSSNKLDGRIPQAMSALTMLTEIDLSNNNLSGPIPEMGQFETFPPAKFLNNPGLCGYPLPRCDPSNADGYAHHQRSHGRRPASLAGSVAMGLLFSFVCIFGLILVGREMRKRRRKKEAELEMYAEGHGNSGDRTANNTNWKLTGVKEALSINLAAFEKPLRKLTFADLLQATNGFHNDSLIGSGGFGDVYKAILKDGSAVAIKKLIHVSGQGDREFMAEMETIGKIKHRNLVPLLGYCKVGDERLLVYEFMKYGSLEDVLHDPKKAGVKLNWSTRRKIAIGSARGLAFLHHNCSPHIIHRDMKSSNVLLDENLEARVSDFGMARLMSAMDTHLSVSTLAGTPGYVPPEYYQSFRCSTKGDVYSYGVVLLELLTGKRPTDSPDFGDNNLVGWVKQHAKLRISDVFDPELMKEDPALEIELLQHLKVAVACLDDRAWRRPTMVQVMAMFKEIQAGSGIDSQSTIRSIEDGGFSTIEMVDMSIKEVPEGKL
partner: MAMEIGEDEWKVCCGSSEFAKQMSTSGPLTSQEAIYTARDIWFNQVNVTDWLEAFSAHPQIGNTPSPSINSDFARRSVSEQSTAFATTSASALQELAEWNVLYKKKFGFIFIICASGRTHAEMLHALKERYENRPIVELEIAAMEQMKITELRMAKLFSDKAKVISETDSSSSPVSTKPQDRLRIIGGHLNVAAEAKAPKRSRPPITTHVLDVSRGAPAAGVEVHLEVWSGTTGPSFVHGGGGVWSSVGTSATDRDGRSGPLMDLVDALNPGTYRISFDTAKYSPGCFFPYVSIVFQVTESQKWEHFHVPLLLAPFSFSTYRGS

Columns and labels:
[1] = variants of: B1; settings: with tthl_arath TTL
[2] = variants of: B1; settings: with tthl_arath TTL; remark: listed apart in the source

Row | effect of a mutation on the interaction [1] | effect of a mutation on the interaction [2] | Variant
1 | disrupting interaction |  | A1031T
2 | disrupting interaction | decreasing interaction | E1078K
3 | disrupting interaction | decreasing interaction | G1048D
